Experimental findings from article PMC8667730 are described below.

Sequences and labels used below:
B1: flaB mutant F6 (E122, Glu to Ala) (natural protein)
chain: MAINVSTNVSAMTAQRYLNNAADGTQKSMERLSSGYKINSARDDAAGLQISNRLTSQSRGLDMAVRNANDGISIAQTAEGAMNETTNILQRMRDLSLQSANGSNSSSERQAIQEEVSALNDALNRIAETTSFGGNKLLNGSFGNKSFQIGADSGEAVMLSMSDMRSDTKAMGGKSYVATNGKAPDWSVTNATDLTLSYTDKQGEAREVTINAKAGDDLEEVATYINGQNGDIKASVGDEGKLQLFAANQKVSSDVTIGGGLGTEIGFAAGKDVTVKDINVTTVGGSQEAVALIDGALKAVDSQRASLGAFQNRFGHAISNLDNINENVNASRSRIKDTDYARETTQMTKSQILQQASTSVLAQAKQSPSAALSLLG
B2: flaB mutant F4 (R91, Arg to Ala) (natural protein)
chain: MAINVSTNVSAMTAQRYLNNAADGTQKSMERLSSGYKINSARDDAAGLQISNRLTSQSRGLDMAVRNANDGISIAQTAEGAMNETTNILQAMRDLSLQSANGSNSSSERQAIQEEVSALNDELNRIAETTSFGGNKLLNGSFGNKSFQIGADSGEAVMLSMSDMRSDTKAMGGKSYVATNGKAPDWSVTNATDLTLSYTDKQGEAREVTINAKAGDDLEEVATYINGQNGDIKASVGDEGKLQLFAANQKVSSDVTIGGGLGTEIGFAAGKDVTVKDINVTTVGGSQEAVALIDGALKAVDSQRASLGAFQNRFGHAISNLDNINENVNASRSRIKDTDYARETTQMTKSQILQQASTSVLAQAKQSPSAALSLLG
B3: flaB mutant F2 (N83, Asn to Ala) (natural protein)
chain: MAINVSTNVSAMTAQRYLNNAADGTQKSMERLSSGYKINSARDDAAGLQISNRLTSQSRGLDMAVRNANDGISIAQTAEGAMAETTNILQRMRDLSLQSANGSNSSSERQAIQEEVSALNDELNRIAETTSFGGNKLLNGSFGNKSFQIGADSGEAVMLSMSDMRSDTKAMGGKSYVATNGKAPDWSVTNATDLTLSYTDKQGEAREVTINAKAGDDLEEVATYINGQNGDIKASVGDEGKLQLFAANQKVSSDVTIGGGLGTEIGFAAGKDVTVKDINVTTVGGSQEAVALIDGALKAVDSQRASLGAFQNRFGHAISNLDNINENVNASRSRIKDTDYARETTQMTKSQILQQASTSVLAQAKQSPSAALSLLG
B4: flaB mutant F8 (N312, Asn to Ala) (natural protein)
chain: MAINVSTNVSAMTAQRYLNNAADGTQKSMERLSSGYKINSARDDAAGLQISNRLTSQSRGLDMAVRNANDGISIAQTAEGAMNETTNILQRMRDLSLQSANGSNSSSERQAIQEEVSALNDELNRIAETTSFGGNKLLNGSFGNKSFQIGADSGEAVMLSMSDMRSDTKAMGGKSYVATNGKAPDWSVTNATDLTLSYTDKQGEAREVTINAKAGDDLEEVATYINGQNGDIKASVGDEGKLQLFAANQKVSSDVTIGGGLGTEIGFAAGKDVTVKDINVTTVGGSQEAVALIDGALKAVDSQRASLGAFQARFGHAISNLDNINENVNASRSRIKDTDYARETTQMTKSQILQQASTSVLAQAKQSPSAALSLLG
B5: flaB mutant F3 (N87, Asn to Ala) (natural protein)
chain: MAINVSTNVSAMTAQRYLNNAADGTQKSMERLSSGYKINSARDDAAGLQISNRLTSQSRGLDMAVRNANDGISIAQTAEGAMNETTAILQRMRDLSLQSANGSNSSSERQAIQEEVSALNDELNRIAETTSFGGNKLLNGSFGNKSFQIGADSGEAVMLSMSDMRSDTKAMGGKSYVATNGKAPDWSVTNATDLTLSYTDKQGEAREVTINAKAGDDLEEVATYINGQNGDIKASVGDEGKLQLFAANQKVSSDVTIGGGLGTEIGFAAGKDVTVKDINVTTVGGSQEAVALIDGALKAVDSQRASLGAFQNRFGHAISNLDNINENVNASRSRIKDTDYARETTQMTKSQILQQASTSVLAQAKQSPSAALSLLG
B6: flaB mutant F14 (I324, Ile to Asn) (natural protein)
chain: MAINVSTNVSAMTAQRYLNNAADGTQKSMERLSSGYKINSARDDAAGLQISNRLTSQSRGLDMAVRNANDGISIAQTAEGAMNETTNILQRMRDLSLQSANGSNSSSERQAIQEEVSALNDELNRIAETTSFGGNKLLNGSFGNKSFQIGADSGEAVMLSMSDMRSDTKAMGGKSYVATNGKAPDWSVTNATDLTLSYTDKQGEAREVTINAKAGDDLEEVATYINGQNGDIKASVGDEGKLQLFAANQKVSSDVTIGGGLGTEIGFAAGKDVTVKDINVTTVGGSQEAVALIDGALKAVDSQRASLGAFQNRFGHAISNLDNNNENVNASRSRIKDTDYARETTQMTKSQILQQASTSVLAQAKQSPSAALSLLG
B7: flaB mutant F7 (D152, Asp to Ala) (natural protein)
chain: MAINVSTNVSAMTAQRYLNNAADGTQKSMERLSSGYKINSARDDAAGLQISNRLTSQSRGLDMAVRNANDGISIAQTAEGAMNETTNILQRMRDLSLQSANGSNSSSERQAIQEEVSALNDELNRIAETTSFGGNKLLNGSFGNKSFQIGAASGEAVMLSMSDMRSDTKAMGGKSYVATNGKAPDWSVTNATDLTLSYTDKQGEAREVTINAKAGDDLEEVATYINGQNGDIKASVGDEGKLQLFAANQKVSSDVTIGGGLGTEIGFAAGKDVTVKDINVTTVGGSQEAVALIDGALKAVDSQRASLGAFQNRFGHAISNLDNINENVNASRSRIKDTDYARETTQMTKSQILQQASTSVLAQAKQSPSAALSLLG
B8: flaB mutant F13 (H316, His to Ala) (natural protein)
chain: MAINVSTNVSAMTAQRYLNNAADGTQKSMERLSSGYKINSARDDAAGLQISNRLTSQSRGLDMAVRNANDGISIAQTAEGAMNETTNILQRMRDLSLQSANGSNSSSERQAIQEEVSALNDELNRIAETTSFGGNKLLNGSFGNKSFQIGADSGEAVMLSMSDMRSDTKAMGGKSYVATNGKAPDWSVTNATDLTLSYTDKQGEAREVTINAKAGDDLEEVATYINGQNGDIKASVGDEGKLQLFAANQKVSSDVTIGGGLGTEIGFAAGKDVTVKDINVTTVGGSQEAVALIDGALKAVDSQRASLGAFQNRFGAAISNLDNINENVNASRSRIKDTDYARETTQMTKSQILQQASTSVLAQAKQSPSAALSLLG
B9: flaB mutant F5 (D94, Asp to Ala) (natural protein)
chain: MAINVSTNVSAMTAQRYLNNAADGTQKSMERLSSGYKINSARDDAAGLQISNRLTSQSRGLDMAVRNANDGISIAQTAEGAMNETTNILQRMRALSLQSANGSNSSSERQAIQEEVSALNDELNRIAETTSFGGNKLLNGSFGNKSFQIGADSGEAVMLSMSDMRSDTKAMGGKSYVATNGKAPDWSVTNATDLTLSYTDKQGEAREVTINAKAGDDLEEVATYINGQNGDIKASVGDEGKLQLFAANQKVSSDVTIGGGLGTEIGFAAGKDVTVKDINVTTVGGSQEAVALIDGALKAVDSQRASLGAFQNRFGHAISNLDNINENVNASRSRIKDTDYARETTQMTKSQILQQASTSVLAQAKQSPSAALSLLG
B10: flaB mutant F9 (R313, Arg to Ala) (natural protein)
chain: MAINVSTNVSAMTAQRYLNNAADGTQKSMERLSSGYKINSARDDAAGLQISNRLTSQSRGLDMAVRNANDGISIAQTAEGAMNETTNILQRMRDLSLQSANGSNSSSERQAIQEEVSALNDELNRIAETTSFGGNKLLNGSFGNKSFQIGADSGEAVMLSMSDMRSDTKAMGGKSYVATNGKAPDWSVTNATDLTLSYTDKQGEAREVTINAKAGDDLEEVATYINGQNGDIKASVGDEGKLQLFAANQKVSSDVTIGGGLGTEIGFAAGKDVTVKDINVTTVGGSQEAVALIDGALKAVDSQRASLGAFQNAFGHAISNLDNINENVNASRSRIKDTDYARETTQMTKSQILQQASTSVLAQAKQSPSAALSLLG
B11: flaB mutant F12 (L97, Leu to Asn) (natural protein)
chain: MAINVSTNVSAMTAQRYLNNAADGTQKSMERLSSGYKINSARDDAAGLQISNRLTSQSRGLDMAVRNANDGISIAQTAEGAMNETTNILQRMRDLSNQSANGSNSSSERQAIQEEVSALNDELNRIAETTSFGGNKLLNGSFGNKSFQIGADSGEAVMLSMSDMRSDTKAMGGKSYVATNGKAPDWSVTNATDLTLSYTDKQGEAREVTINAKAGDDLEEVATYINGQNGDIKASVGDEGKLQLFAANQKVSSDVTIGGGLGTEIGFAAGKDVTVKDINVTTVGGSQEAVALIDGALKAVDSQRASLGAFQNRFGHAISNLDNINENVNASRSRIKDTDYARETTQMTKSQILQQASTSVLAQAKQSPSAALSLLG
B12: flaB mutant F11 (N320, Asn to Ala) (natural protein)
chain: MAINVSTNVSAMTAQRYLNNAADGTQKSMERLSSGYKINSARDDAAGLQISNRLTSQSRGLDMAVRNANDGISIAQTAEGAMNETTNILQRMRDLSLQSANGSNSSSERQAIQEEVSALNDELNRIAETTSFGGNKLLNGSFGNKSFQIGADSGEAVMLSMSDMRSDTKAMGGKSYVATNGKAPDWSVTNATDLTLSYTDKQGEAREVTINAKAGDDLEEVATYINGQNGDIKASVGDEGKLQLFAANQKVSSDVTIGGGLGTEIGFAAGKDVTVKDINVTTVGGSQEAVALIDGALKAVDSQRASLGAFQNRFGHAISALDNINENVNASRSRIKDTDYARETTQMTKSQILQQASTSVLAQAKQSPSAALSLLG
B13: flaB mutant F1 (Q57, Gln to Ala) (natural protein)
chain: MAINVSTNVSAMTAQRYLNNAADGTQKSMERLSSGYKINSARDDAAGLQISNRLTSASRGLDMAVRNANDGISIAQTAEGAMNETTNILQRMRDLSLQSANGSNSSSERQAIQEEVSALNDELNRIAETTSFGGNKLLNGSFGNKSFQIGADSGEAVMLSMSDMRSDTKAMGGKSYVATNGKAPDWSVTNATDLTLSYTDKQGEAREVTINAKAGDDLEEVATYINGQNGDIKASVGDEGKLQLFAANQKVSSDVTIGGGLGTEIGFAAGKDVTVKDINVTTVGGSQEAVALIDGALKAVDSQRASLGAFQNRFGHAISNLDNINENVNASRSRIKDTDYARETTQMTKSQILQQASTSVLAQAKQSPSAALSLLG

This test addresses TLR5 protein from pGEX-6p-1 (GST-His*10-TEV-TLR5, digested with TEV protease), used for SPR (silvery pomfret (Pampus argenteus)). Description: SPR; BIAcore S200; TLR5 immobilised on an SA sensor chip; flaB proteins injected at 30 uL/min in PBS-P, 25°C; 1:1 Langmuir fit.
For the molecule “flagellin B (flaB) from Vibrio anguillarum, wild type, recombinant (from UniProt Q56572 1-376) (natural protein)”, the Kd was 3.28 µM.

B1 showed a Kd of 4.4 µM.

B2 gave a Kd of 2.57 µM.

Molecule B3 registered a Kd of 0.447 µM.

Take B4: the Kd amounted to 3.8 µM.

The molecule B5 gave a Kd of 26.2 µM.

In turn, B6 yielded a Kd of 27.5 µM.

As for B7, the Kd was determined as 71.7 µM.

B8: the dissociation constant (Kd) is 7.29 µM.

B9 gave a dissociation constant Kd of 46.3 µM.

B10 returned a Kd of 14.8 µM.

The molecule B11 came in with a Kd of 2.41 µM.

As to B12, the Kd is 13 µM.

In turn, B13 yielded a Kd of 0.431 µM.
